The record followed here is PMC9841416, “The recognition of structured elements by a conserved groove distant from domains associated with catalysis is an essential determinant of RNase E”.

This data set concerns the target NTH-RNase E D346N (Escherichia coli (K12, P21513-1 in …, UniProt P21513 1-529, D346N)). Put plainly: EMSA; 15 mM CaCl2; 25 mM bis-Tris propane pH 8.3, 100 mM KCl, 15 mM CaCl2, 0.1% (v/v) Triton X-100, 1 mM DTT, 20% (v/v) glycerol, 37 C 20 min; 1% agarose gel in 1x TBE. The following applies: protein: recombinant; tags: N-terminal oligohistidine; chain copies: 4; single-stranded.

B1: 5'-monophosphorylated LU13 (ssRNA)
RNA: GAGACAGUAUUUG
modifications: 5'-monophosphate
Regarding B1, the Kd came to 56 nM.

As a reminder, the Kd is the concentration at which binding is half-saturated.
